Article PMC5665613

Target: Ub-aminomethylcoumarin (Ub-AMC) (UniProt P0CG47)

Sequence of BAP1N (1-240), wild-type catalytic domain of BAP1 (Q92560 1-240): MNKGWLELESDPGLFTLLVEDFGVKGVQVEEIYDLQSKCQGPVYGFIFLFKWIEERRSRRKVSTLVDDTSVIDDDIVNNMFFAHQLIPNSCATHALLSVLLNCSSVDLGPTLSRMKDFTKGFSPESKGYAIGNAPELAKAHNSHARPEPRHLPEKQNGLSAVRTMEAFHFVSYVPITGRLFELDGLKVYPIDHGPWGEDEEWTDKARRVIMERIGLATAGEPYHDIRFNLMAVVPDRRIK

For “BAP1N (1-240), wild-type catalytic domain of BAP1 (from UniProt Q92560 1-240) (domain or fragment)”, which Km of Ub-AMC hydrolysis by BAP1N (250 pM enzyme, 100 nM-7.5 µM Ub-AMC, 25°C, double-reciprocal plot) is on record?
Its Km of Ub-AMC hydrolysis by BAP1N (250 pM enzyme, 100 nM-7.5 µM Ub-AMC, 25°C, double-reciprocal plot) is 2.9 µM.
